{"source": "the DeepSol protein solubility set"}
{"experiment": "soluble on expression in E. coli; label from the status in PepcDB or PDB records"}
{"sequence": "MSSEEDEIAELSKDTPPEKKRKISESGASSSSFIPESTSEESLSLKSKKSGSRKRILTASSSTNSIAMKSSASWIQEKDTPINKSDEEKSIAESLLIANFSNEQLDRYTAFKRSRFNRRIIKNVITRTTGQIPSDPLALAVAGLTKMFIGDLVEEAVELRGALNEQDRPVQPYHITRAFDKLLAEGKLWPPYGAKY", "soluble on expression in E. coli": "not soluble"}
{"sequence": "MGSDKIHHHHHHDLTEEIHSSVIAENYYNNAGEVMAAMMRPWGHFCGTMQVAQSPWSCNELSSDCAAWPQKGRHGYDNGDWIRLHRHQWIPTDGQVVDAWKKLFEGIGYANNFLTDTENIDFEALQVPMSKAQAQAEMRVYRAYCYWYVMDMFGTAPICEKIGEINPSSKSRAELFAWIEKELNESIPSLSESKTETYGRVSKWGAYALLARLYLNAEIYTGQARWDDCIAACDELAKGGFALDKKWNDTFRADNDKRSTEIIWSIVYDEVYAKGMGWYQRWLHYAHQTGWDLQSGPWNGLVTQPTFYDSFADNDLRKIEGFLIGKQYPRKVDENGNYYYDTTAEPLKGSEEYNGQDLVFVNYIKSMTEGEENSGARSIKYEIQPGTTGDMNNDWVMFRYSEVIYNKAEALMRKNGGKATQEVVDMINSVRQRSFKAEDWEKAKYTTATLTMDEFLAEKGREFAFEGIRRTDLVRFNKFVTTSWWDKTASNEPKRNIFPIPQRQLDANANLSPNEANSLF", "soluble on expression in E. coli": "not soluble"}
{"sequence": "SWMEEVIKLCGRELVRAQIAICGMSTWS", "soluble on expression in E. coli": "soluble"}
{"sequence": "MTAPVPTCNMSGNPINLHKLTLIMPLPSPEARQFSLKLQTLIAEKIGKHGNWIPFSRFMELVLYAPQYGYYTGGSHKIGNTGDFITAPTLTSLFAQTLARQLQELLSQTAGNIYEFGAGTGQLAADLLGSISDGISRYYIIEISPELAARQKNLIQARAPEASQKVVHLTALPEAFDGIIIGNEVLDAMPVEIVRKNEGGSFEHVGVCLDNDRFTYSARPLHDLQLSALASLYFPQTDYPYTSELHPQQYAFIRTLASRLEHGCMIFIDYGFDAAQYYHPQRNQGTLIGHYRHHIIHNPFDFIGLADLTAHVNFTDIAQAGTDAGLDLIGYLPQSHFLLNLGITELLAQTGKTDSAAYICEAAAVQKLIDQHEMGELFKVIAFGKNIGIDWAGFRFGDICHKL", "soluble on expression in E. coli": "not soluble"}
{"sequence": "NRFIGYIQVACCCLLLCASCVRDGMDEDCNSYVRFVYDYNLEYIDLFHKQATKMNLYVFDEKGVFVTELKEESGAFAPDYLMTLPGAMAGRRYIFVAWSGLYGESYDKVTLTPGVSTLEDLEVSVNNLKTRIGGGVVDRELHLLWHGKQTEVSPQYNNDITTVSLLKNTKKFRIIMQMLDDSSIHVDDYDFRIISPNGRYNHENGLLGDETDEKVEYTAYHTEDDPETGAIAELNTLRLMTDTENRLVITHKSSGNVILDIPLNKYLNALRLQQYADIPLQEYLDRADKHGIILFFKGMDGNGNYISVDVQINGWLIRKQEVD", "soluble on expression in E. coli": "not soluble"}
{"sequence": "MCSLLKLLKISGKSVSDDDPIERYIKCEQCKCKRHWVEQLQRDEMDQMLHRLQFENKQLRKELEWKRGAASTMEIDRSSKRHQERHQSESRGGTLPLRNGRSVVSLKSTQSQNDVMDEAKALRLHKQRLEHRSRILEQQNEQLEMQLQRLKKVIDAQKQQAPLSTNSLLRGSHHQPWSPERARSGSASTLDRGLIVSSRHQEQAEAAGGGAEDSSDEAGGAGGGPRGSSVGQMQNLMTACDDLGKAMESLVVSVVYDSDDEEND", "soluble on expression in E. coli": "not soluble"}
{"sequence": "MGSDKIHHHHHHVKLAAVDIGSNAIRFQVSKILEYNGMIMFKKMEYVRFPLRLGEDVFRLGMISAEKEMKFIKLIQTFKNLFELYEVDDYMISATSAMRESKNGRDIVLKVKGLVGVDIDIIDGDKEAELINTVLHNELDDNSYIHIDVGGGSTELNLFVNRKKIAARSFKIGSVRRLQGLDAPEEWESMKQWVKDNIDKLPKPVTAIGTGGNIGKIFELGTTEKSKKDKRMISLKKIEEVQHNISQYSYEDRINVLMLNSDRADVIIPASEIYTSVMEFAKAKNMLVPEVGLKDGLMLMLYERNKHLHITDLDSIRNVNKYQK", "soluble on expression in E. coli": "not soluble"}
{"sequence": "SNAMHNHNNRLVITPGEPAGVGPDLAITLAQQDWPVELVVCADPALLLARASQLNLPLQLREYQADQPAIAQQAGSLTILPVKTAVNVVPGKLDVGNSHYVVETLAKACDGAISGEFAALVTGPVQKSIINDAGIPFIGHTEFFADRSHCQRVVMMLATEELRVALATTHLPLLAVPGAITQASLHEVITILDNDLKTKFGITQPQIYVCGLNPHAGEGGHMGHEEIDTIIPALNTLRQQGINLIGPLPADTLFQPKYLQHADAVLAMYHDQGLPVLKYQGFGRAVNITLGLPFIRTSVDHGTALELAATGTADVGSFITALNLAIKMINNSNE", "soluble on expression in E. coli": "soluble"}
